The series can be described thus: yeast display, Sf9 membrane polyspecificity reagent, FACS + sequencing; frameworks hold sequencing errors. The procedure, abridged:
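Nanobodies from a synthetic yeast display library (Saccharomyces cerevisiae BJ5465), induced 36–48 hours with galactose, were stained 1 hour at 4 °C with 10% biotinylated, detergent-solubilized Sf9 membrane reagent, enriched on streptavidin microbeads, then FACS-sorted. Anti-HA (expression) and streptavidin (reagent binding) fluorescence set low and high (top ~1%) gates. Polyreactivity labels come from the gate of origin. Genes were colony-PCR amplified, MiSeq 2 × 250 sequenced and filtered by CDR length.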
Turning to “QDQLVESGGGLVQAGGSLRLSCAASGYIFRIYAMGWYRQAPGKERELVATITNGGSTHYADSVKGRFTISRDNAKNTVYLQMNSLKPEDTAVYYCAADLLYSEYDYWGQGTQVTVSS”, the “polyreactivity (PSR sort gate)” value was “high polyreactivity”.

Turning to “QDQLVESGGGLVQAGGSLRLSCAASGYTFRYYAMGWYRQAPGKERELVARITGRAGSTYYADSVKGRFTISRDNAKNTVYLQMNSLKPEDTAVYYCAASIREGFYWGQGTQVTVSS”, the “polyreactivity (PSR sort gate)” value is recorded as “high polyreactivity”.

As for “QDQLVESGGGLVQAGGSLRLSCAASVFTFRYYAMGWYRQAPGKEREFVATISWSGGSTYYADSVKGRFTISRDNAKNTVYLQMNSLKPEDTAVYYCAAGRVGTTTLEFYYCGQGTQVTVSS”, the “polyreactivity (PSR sort gate)” value is on record as “high polyreactivity”.

Turning to “QDQLVESGGGLVQAGGSLRLSCAASVRTCNSYAMGWYRQAPGKERELVADITSSGGSTYYADSVKGRVTISRDNAKNTVYVQMNSLKPEDTAVYYCAADGYTRLPTYLRVTHRSLDYCGQGTQVTVSS”, the “polyreactivity (PSR sort gate)” value is listed as “low polyreactivity”.

Regarding “QDQLVESGGGLVQAGGSLRLSCAASVSIFGVNVMGWYRQAPGKERELVAAITSIGGRTYYADSVKGRFTISRDNAKITVYLQMNSLKPEETAVYYCNADYTGAEYDYWGQGTQVTVSS”, the “polyreactivity (PSR sort gate)” value was “low polyreactivity”.

For “QDQLVESGGGLVQAGGSLRLSCAASYYAMGWYRQAPGKERELVASISSGGSTNYADSVKGRFTISRDNAKNTVYLQMNSLKPDDTAVYYCAAQYYATYGYWGQGTQVTVSS”, the “polyreactivity (PSR sort gate)” value was “low polyreactivity”.

For the sequence “QDQLVESGGGLVQAGGSLRLSCADSGYTFTSNDMGWYRQAPGKERELVAAITWSGGTTYYADSVKGRFTISRDNAKNNVYLQMNSLKPDDTAVYYCAAESTLPIIDRDDYWGQGTQVTVSS”, the “polyreactivity (PSR sort gate)” value is recorded as “low polyreactivity”.

As to “QDQLVESGGGLVQAGGSLRLSCAGCAYIFGRYAMGWYRQAPGKEMELVAAITQRGGRTYYPDSVKGRFTISRDNAKNTVYLQMNSLKPEDTAVYYCAALLYFFLYDYWGQGTQVTVSS”, the “polyreactivity (PSR sort gate)” value was “low polyreactivity”.

For “QDQLVESGGGLVQAGGSLRLSCAGSGSILDGNAMLWYRQAPGKERELVAGISGDSGSTYYADSVKGRFTISRDNAKNTVYLQMNSLKPEDTAVDYCAVTWGARTDQWPLRVFVGHDYWGQGTQLTVSS”, the “polyreactivity (PSR sort gate)” value is given as “low polyreactivity”.

For “QDQLVESGGGLVQAGGSLRLSCDASGFILETNAMGWYRQAPGKERELVASITSSGSTYYADSVKGRFTISRDNAKNTVYLQMNSLKREVTAVYYCAARRYRSRGRTYGWFRYDYWGQGTQVTVSS”, the “polyreactivity (PSR sort gate)” value is on record as “high polyreactivity”.

Take “QDQLVESGGGLVQAGGSLRLSCDASGSIFPIYAMGWYRQAPGKERELVAAINRSGGSTYYADSVKGRFTISRDNAKNTVYLQMNSLKPEDTAVYYCKADYGYHNQLFWGYYGWSSDHWGQGTQVTVSS”: the “polyreactivity (PSR sort gate)” value was “low polyreactivity”.

For the sequence “QDQLVESGGGLVQAGGSLRLTCAASGSTFTLYVMGWYRQAPGKARELVAAISRGDTTNYADSVKGRFTISRDNAKNTVYLQMNSLKPEDTAVYYCAATYPTFFYWSKVYERDYWGQGTQVTVSS”, the “polyreactivity (PSR sort gate)” value is “low polyreactivity”.

“QDQLVESGGGLVQAGGSLRLTSAASGFKFEKNAMGWYRQSPGKERQLVARISRSGGSTYYADSVKGRFTISRDNAKNTVYLQMNSLKPEDTADYYCNCLHRSDSGYYYRYDYWGQGTQVTVSS”: the “polyreactivity (PSR sort gate)” value is given as “high polyreactivity”.

Regarding “QDQLVESGGGLVQAGGSLRVSCAASGSIFAWYAMGWYRQAPGKDRELVAVITRGGSTNYADSVKGRFTISRDNAKKTVYLQMNSLKPEDTAVYYCAAGSYYSWYPFDYWGQGTQVTVSS”, the “polyreactivity (PSR sort gate)” value is reported as “low polyreactivity”.

Turning to “QDQLVESGGGLVQAGGSLRVSCAASGSVFLVNAMGWYRQAPGKERELVAIDGSGGSTYADSVKGRFTISRDNAKNTVYLQMNILKPEDTAVYYCAKDQEGPLYDYWGQGTQVTVSS”, the “polyreactivity (PSR sort gate)” value is “low polyreactivity”.

“QDQLVESGGGLVQAGGSLSLCCAASGFTFKLYAMGWYRQAAGKVREVVAAISSSGGRTYYADSVKGRFTISRDNAKNTVYLQMNSLKPEDTAVYYCNAVRTVNDYHYDYSGQGTQVTVSS”: the “polyreactivity (PSR sort gate)” value was “high polyreactivity”.

“QDQLVESGGGLVQAGGSLSLSCAASGRIFRGNAMGWYRQAPGKERELVASITWRGTSTYYADSVKGRFTISRDNAKNTVYLQMNSLKPEDTAVYYCAASLYSWGQGTEVTVSS”: the “polyreactivity (PSR sort gate)” value was “high polyreactivity”.

As to “QDQLVESGGGLVQAGGTLRLSCAASGRIFKSYAMGWYRQAPGKEREVVASISYTGGSTYYADSVKGRFTISRDNAKNTVYLEMNSLNPEDTAVYYFAAKRVRSAGSYGYWGQVTQVTVSS”, the “polyreactivity (PSR sort gate)” value was “low polyreactivity”.

For the sequence “QDQLVESGGGLVQAGGTLRLSCAASGYTFDTYALGWYRQAPGKERELVAAISYTGGSTYYADSVKGRFTISRDNAKNTVYLQMNSLKPEDTAVYYCAADFNGYPGGDLYVGYDYWGLGTQVTVSS”, the “polyreactivity (PSR sort gate)” value is “low polyreactivity”.

“QDQLVESGGGLVQAGRSLRLSCAASGRIFYYNAMGWYRQAPGKERELVAAISYTDDSTYADSVKGRFTISRDNAKNTVYLQLNSLKPEDTAVYYCAADAVAYIYGYDYDYWGQGTQVTVSS”: the “polyreactivity (PSR sort gate)” value is listed as “low polyreactivity”.

Take “QDQLVESGGGLVQAGVSLRISCAASGFTFRGNAMGWYRQAPGKERELVAAITSSDDSTYYADSVKGRFTNSRDNAKNTVYLQMNSLKPEDTAVYYCAAVANGYWTYEYWGQGTQVTVSS”: the “polyreactivity (PSR sort gate)” value is on record as “low polyreactivity”.

On to “QDQLVESGGGLVQAGVSLRLSCAASGLTFPQYVMGWYRQAPGKQRELDASISSSGGNTYYADSVKGRFTISRDNAKNTVYLQMISLKPEDTAVYYCAAEYIFHYYDIFDYWGQGTQVTVSS”, for which the “polyreactivity (PSR sort gate)” value is listed as “high polyreactivity”.

Take “QDQLVESGGGLVQARGRQRLSCAATGSTFYRNALGWYRQAPGKEREFVAAISFRGGGTYADSVKGRFTISRDNAKNTVYLQMNSLKPEDTAVYYFGADHLSYRRRYEYWGQGTQVTVSS”: the “polyreactivity (PSR sort gate)” value was “low polyreactivity”.

For “QDQLVESGGGLVQARGSLRLSCAASGRIIKTNAMGWYRQAPGKERELVAAISSSGGRTYYADSVKGRFTISRDNAKNTVYLQMNSLKPEDTAVYYCAAPSLVSFGYWGQGTQVTVSS”, the “polyreactivity (PSR sort gate)” value was “high polyreactivity”.

For “QDQLVESGGGLVQEGGSLRLSCAASGNIFNRYGMGWYRQAPGKEREFVAAISSGGGSTYYADSVKGRFTISRDNAKNTVYLQINRLKPEDTAVYYCAAGYSSLRRVGVYYWRQGTQVTVSS”, the “polyreactivity (PSR sort gate)” value is “high polyreactivity”.

On to “QDQLVESGGGLVQEGGSLRLSCAASGSTFKNYALGWYRQAPGTERELVAASNVSRARTYYADSVKGRFTLSRDNAKNRVYFQMNSLIPEDTAFYYCAAYYSGVGFDYWGQGTHVTVSS”, for which the “polyreactivity (PSR sort gate)” value is given as “high polyreactivity”.

Regarding “QDQLVESGGGLVQEGGSLRLSCAAYGSIYRYAMGWNRPAPGKERELVAAINFNGGRTYYADSVNGRFTISRDNAKNTVYLQMTSLKPEDTAVYYCAARISVYSTLPNDFDYWGQGTQVTVSS”, the “polyreactivity (PSR sort gate)” value is on record as “high polyreactivity”.

On to “QDQLVESGGRIVQAGGSLRLSCASSGRTFYTYAMGWYRKAPGKERELVAAISSSGSTYYADSVKGRFTISRDNAKNTVYLQMNSLKPEDTALYDCNARTSRYRRGGDSWGQGTQVTVSS”, for which the “polyreactivity (PSR sort gate)” value is “high polyreactivity”.

“QDQLVESGGRLVQAGGSLRLSCAASGRIFSSYALGWYRQAPGKERELVAAIRSSGDRTYYADSVKGRFTISRDNAKITVYLQMNILKPEETAVYFCASRTYLYFGRYDYWGQGTQVTVSS”: the “polyreactivity (PSR sort gate)” value was “high polyreactivity”.

Turning to “QDQLVESGGVLVQAGGSLRLSCAASGFIFNRYAMGWYRQAPWKERELVAANTRTGSTNYADSVKGRFTISRYNAKYTVYLQMSCLKPEDTAVFYCAAVYLSLGRPYYTFEYWGQGTQVTVSS”, the “polyreactivity (PSR sort gate)” value is given as “high polyreactivity”.

Regarding “QDQLVESGGVLVQAGGSLRLSCADSGFSFANYVMGWYRQAPGKERELFAAITTPGGSTSYADSVKGRFTISRDNAKTNVYLQMPSLKPEDTAVYFCKKTTYYPSDYDYWGQGTQVTVSS”, the “polyreactivity (PSR sort gate)” value is listed as “low polyreactivity”.

“QDQLVESGRGLVQAGGSLRLSCAASGRTFALNVMGWYRQAPGKERELVAAISRSGGSTYFADSVKGRFTISRDNAKNTVYIQMNSLKPEDTAVYSCAAATHYQSYKRRDYWGQGTQVTVSS”: the “polyreactivity (PSR sort gate)” value is “high polyreactivity”.

“QDQLVESGVGIVQAGGRLRLSCAASGRTFGRNAMGWYIQAPGKERELVATISRSGGSTNYADSVKGRFTISRDNAKNTVYLQMNSLKPEDTAVYYCAKARPFSYDYWGLGTQVTVSS”: the “polyreactivity (PSR sort gate)” value is listed as “high polyreactivity”.

For the sequence “QDQLVESRGGLVQAGGSLRLRCAASGRIFTRYAMGWYRQAPRKERELVAAITYNGGSTYYADSVKGRFTISRDNAKNTVYLQMNSLKPEDTAVYYCNAVYMSWFGLYAGFDYWGQGTQVTVSS”, the “polyreactivity (PSR sort gate)” value is given as “high polyreactivity”.

With “QDQLVESRGGLVQAGGSLRLRCAASGSIFIGYAMGWYRQAPGKQRELVAAISGSGSSTYYADSVKGRFTISRDNAKNNDYLQMNILKPEDTAVYYCAAAPRFRGYDYCGQGTQVTVSS”, the “polyreactivity (PSR sort gate)” value is listed as “high polyreactivity”.

For “QDQLVESVGGLVQAGASLRLSCAATGRTFTTYAIGLYRPAPGKERELVAAITSGTSTNYADSVKGRFTISRDTAKNTVYVQMNSLKPEDTAVYYCAAPHGRGYEYWGQGTQVTVSS”, the “polyreactivity (PSR sort gate)” value was “high polyreactivity”.

As for “QDQLVESVGGLVQAGGSHRLSCAASGFTLKAYVMGWYRQAPGKERELVAAIRITGGRTYYADSVKGRFTISRDNAKNTVYLQMNSLKPQDTAVYYCNAVKGEPDDYVPFELDYWGQGTQVTVSS”, the “polyreactivity (PSR sort gate)” value is reported as “high polyreactivity”.

Consider “QDQLVESVGGLVQAGGSLRLSCAASGGTFGPNAMGWYRQAPGKERELVAAISASGGITYYADSVKGRFTISRDNAKNTVYLQMNSLKPEDTAVYYCAAAITWIYSQAAFKIVQYDYWGQGTQVTVSS”, for which the “polyreactivity (PSR sort gate)” value is “low polyreactivity”.

Consider “QDQLVESVGGLVQAGGSLRLSCAASGSIFVRYAMGWYRQAPGKERELVAAISSDGNTYYADSVKGRFTISRDNAKNTVYLQMNSLKPEDTAVYYCAAKTRSRYYWGQGTQVTVSS”, for which the “polyreactivity (PSR sort gate)” value is “high polyreactivity”.

As to “QDQPVESGGGLVQAGGSLRLSCDDSGFTFVYYAMGWYRQAPGQERELVAAISTGGSTYYADSVKWRFTISRDNAKNTVYLQMNSLKPEDTAVYYCNAVYTYRWRFNYWGQGTQVTVSS”, the “polyreactivity (PSR sort gate)” value was “high polyreactivity”.

Regarding “QDQRVDSGRGLVQAGGSLRLSCAASGSIFDFYARGWNRPAPGKERELVATISSAGSTYYAESVKGRFTISRDNAKNTVYLQMNSLKPEDTALYYCARGYIRSYWWYHSDRGDFWGQGTQVTVSS”, the “polyreactivity (PSR sort gate)” value is on record as “low polyreactivity”.

For the origin of these results see the nanobody polyreactivity screen of Harvey et al. (2022).
